# Values quoted from earlier work as cited in patent US20230416704A1, “LACTONASE AND STABILIZED MUTANTS THEREOF FOR TREATING FUNGAL INFECTIONS IN PLANTS” (MIGAL GALILEE RESEARCH INSTITUTE LTD., priority 2020, published 2023).
# Settings: as shown in WO 2020/255131; cited from earlier work
molecule,measurement,value
H172Y: M. tuberculosis phosphotriesterase-like lactonase (PPH) with H172 substituted by tyrosine (protein) MISEFPELNTARGPIDTADLGVTLMHEHVFIMTTEIAQNYPEAWGDEDKRVAGAIARLGELKARGVDTIVDLTVIGLGRYIPRIARVAAATELNIVVATGLYTYNDVPFYFHYLGPGAQLDGPEIMTDMFVRDIEHGIADTGIKAGILKCATDEPGLTPGVERVLRAVAQAYKRTGAPISTHTHAGLRRGLDQQRIFAEEGVDLSRVVIGHCGDSTDVGYLEELIAAGSYLGMDRFGVDVISPFQDRVNIVARMCERGHADKMVLSHDACCYFDALPEELVPVAMPNWHYLHIHNDVIPALKQHGVTDEQLHTMLVDNPRRIFERQGGYQ,temperature of 50% residual activity,about 65 °C
